Results: patent US12570975B2, “Composition for diagnosis or treatment of a condition associated with increased activity of EIF4E comprising an EIF4E inhibitor” (SoVarGen Co., Ltd., priority 2019, dated 2026)

B1: sheIF4E: shRNA against eIF4E, sense SEQ ID NO: 203 and antisense SEQ ID NO: 204, expressed from mU6 promoter in pCIG-mTOR mutant vector (nucleic acid)
sense: TCGATTGATCTCTAAGTTTGATTTCAAGAGAATCAAACTTAGAGATCAATCGTTTTTTCTCGA
antisense: TCGAGAAAAAACGATTGATCTCTAAGTTTGATTCTCTTGAAATCAAACTTAGAGATCAATCGA

How the values were obtained:
[1] = system: FMCD animal models; assay: Metformin treatment of FMCD animal models, video-EEG seizure analysis; format: in vivo, mouse
Description: In this experiment, metformin was intraperitoneally injected at a dose of […] into the FMCD animal models of Example 1 from P14 to P56 for early treatment and from P84 to P114 for late treatment.

[2] = system: FMCD and epilepsy animal models (mTOR-p.C1483Y, mTOR-p.L2427P); assay: Marble burying test, FMCD epilepsy models; format: in vivo, mouse; settings: mU6-sheIF4E models compared to mU6-shscramble models
Protocol: A mouse was placed in the cage.
(§1) Experiments were performed on the FMCD and epilepsy animal models (mTOR-p.C1483Y, mTOR-p.L2427P) of Example 7-1 and the control normal animal models (mTOR-WT). The same sheIF4E as that described in Example 2 was used. Week 2 after sheIF4E injection, the handling was performed in the animals. Week 3 after sheIF4E injection, the animals were subjected to the behavioral tests.
(§2) The epilepsy animal models were subjected to the substantially same behavioral abnormality assay as in Example 6. The results are depicted in FIGS. 28 and 29.
(§3) Briefly, ASO #77 was administered by ICV injection to the FMCD and epilepsy animal models were generated with the pCIG-mTOR mutant-IRES-EGFP of Example 1. ASO #77 was evaluated for therapeutic potential for neuropsychiatric disorder accompanying the FMCD epilepsy animal models in the substantially same manner as in Example 6.

[3] = system: FMCD and epilepsy animal models (mTOR-p.C1483Y, mTOR-p.L2427P); assay: Light & dark box test, FMCD epilepsy models; format: in vivo, mouse; settings: mU6-sheIF4E models compared to mU6-shscramble models
Protocol: (§4) Behaviors were recorded and analyzed using EthoVision XT (Noldus).
as §1, §2, §3

[4] = system: eIF4E; assay: Western blot of eIF4E knockdown by sheIF4E in cell lysates (Neuro2A); format: cell-based, mouse; settings: vs shScramble
Protocol: The pSicoR vector digested with HpaI and XhoI restriction enzymes was ligated with the shScramble or the sheIF4E sequence in the presence of ligase to construct pSicoR-shScramble and pSicoR-sheIF4E vectors, respectively. Neuro2A cells were cultured and transfected with pSicoR to evaluate the translational downregulation of eIF4E in the same manner as in Example 1.2.
Construction of pCIG-MTOR mutant-IRES-GFP; mU6-shScramble or pCIG-MTOR mutant-IRES-GFP; mU6-sheIF4E vector and the inhibitory activity of sheIF4E against eIF4E were identified by western blot analysis using cell lysates.

[5] = system: FMCD and epilepsy animal models (mTOR-p.C1483Y, mTOR-p.L2427P); assay: Sucrose preference test, FMCD epilepsy models; format: in vivo, mouse; settings: mU6-sheIF4E models compared to mU6-shscramble models
Protocol: Each of mice was habituated for 3-5 days in a cage with two selectable water bottles presented. Thereafter, the mice were each placed in the same cage as the habituation cage at the day of experiment. The mice were presented with two dual bottles, one containing tap water and the other containing 1% sucrose solution. Water and sucrose solution intake was measured after 24 hours and sucrose preference was calculated according to volume of sucrose intake/total volume of fluid intake×100%.
The same sheIF4E as that described in Example 2 was used. Week 2 after sheIF4E injection, the handling was performed in the animals. Week 3 after sheIF4E injection, the animals were subjected to the behavioral tests.
The epilepsy animal models were subjected to the substantially same behavioral abnormality assay as in Example 6.
as §3

[6] = system: FMCD and epilepsy animal models (mTOR-p.C1483Y, mTOR-p.L2427P); format: in vivo, mouse
Protocol: as §4, §1, §2, §3

[7] = system: FMCD and epilepsy animal models (mTOR-p.C1483Y, mTOR-p.L2427P); assay: Social avoidance test, FMCD epilepsy models; format: in vivo, mouse; settings: mU6-sheIF4E models compared to mU6-shscramble models
Protocol: The arena was a black box (400×400 mm).
as §1, §2, §3

[8] = system: ADK, IRSp53, and CREB1; assay: Immunostaining for ADK, IRSp53 and CREB1 in sheIF4E FMCD mice; format: in vivo, mouse; settings: mTOR p.Cys1483Tyr and p.Leu2427Pro mice, compared to shScramble mice
Description: Therefore, the present inventors performed additional immunostaining in order to investigate in vivo knockdown effect on the expression of ADK, IRSp53, and CREB1 in the FMCD mice, and confirmed significant reduced expression of the genes (FIG. 9e). In the brain tissues at postnatal day 21 from the animal models established using pCIG-MTOR mutant-IRES-GFP; mU6-sheIF4E vector in the same manner as in Examples 1-3 and 3-1, the expression of ADK, IRSp53, and CREB1 was decreased with decreasing of eIF4E expression.
In order to examine whether sheIF4E-mediated in-vivo knockdown of eIF4E led to the expression downregulation of eIF4E-sensitive genes, expression of eIF4E-sensitive genes was analyzed by immunofluorescence. The immunofluorescence results are depicted in FIG. 9e. The animal models with the sheIF4E-mediated eIF4E knockdown characteristic and the shScramble mice were substantially the same as in Example 2-1.

[9] = system: eIF4E; assay: Immunostaining for eIF4E in sheIF4E FMCD mice; format: in vivo, mouse; settings: brain tissue at postnatal day 21
Description: For the animal model, prepared in Example 2-1, in which eIF4E was knock-downed using sheIF4E, after embryos that had been electroporated with a plasmid carrying an mTOR mutant gene at embryonic day 14 (E14), in the same manner as in U.S. Pat. No. 9,629,346, were born, the mice expressing fluorescence were screened by flashlight (Electron Microscopy Science, USA).

[10] = system: FMCD and epilepsy animal models (mTOR-p.C1483Y, mTOR-p.L2427P); assay: 3-Chamber test (social interaction), FMCD epilepsy models; format: in vivo, mouse; settings: mU6-sheIF4E models compared to mU6-shscramble models
Protocol: The 3-Chamber test measures social interaction and preference for social novelty. This apparatus consisted of three chambers with dimensions of 12×20×26 cm for the center chamber and dimensions of 14×20×26 cm for the opposite side chambers. Each of the opposite side chambers included a plastic cage (11 cm in diameter, 2.15 cm in height) for an object or stranger mouse in a corner. This experiment consisted of three sessions of habituation (10 min), exploring object/mouse (10 min), and exploring familiar/new mouse (10 min). In the second session, a WT stranger mouse was randomly placed in a plastic cage while the opposite plastic cage was empty. The mouse was allowed to freely explore the whole apparatus. The time spent in each chamber was measured and then used for the subsequent social interaction test. In the last session, a new WT stranger was placed in the empty plastic cage.
Experiments were performed on the FMCD and epilepsy animal models (mTOR-p.C1483Y, mTOR-p.L2427P) of Example 7-1 and the control normal animal models (mTOR-WT). […]
as §3

[11] = system: FMCD animal models (mTOR p.C1483Y, mTOR p.L2427P); assay: Video seizure monitoring in FMCD animal models with sheIF4E-mediated eIF4E knockdown; format: in vivo, mouse
Protocol: In FMCD animal models, the onset of epilepsy starts at postnatal day 21 on average and has been completed within postnatal day 50. Video EGG monitoring was conducted from 3 weeks after birth. EGG signals were recorded for 12 hours per day three times in a week from postnatal day 21 to postnatal day 120. From the 12-hour video recordings, the number and length of seizures were measured.
From the 12-hours video recordings, the number and length of seizures were measured (FIG. 10).

[12] = system: FMCD epilepsy animal models; assay: Cortical dysplasia, neuron size and synaptic spine density in sheIF4E FMCD mice; format: in vivo, mouse
Protocol: Then, mice born following the electroporation of Example 1-6 were analyzed for neuronal cell size and synaptic spine density. Neuronal cell size was measured in ImageJ software (http://rsbweb.nih.gov/ij/). Synaptic spines were counted using a 63× objective lens. Ten basal dendrites were acquired per subject, and measured in electroporated cells expressing a GFP reporter, using manual counting. For neuronal cell size (FIG. 12), mouse brain tissues at postnatal day 21 were acquired and the size of GFP (green)-positive mutant cells (shScramble or sheIF4E expressed) was measured. For synaptic spine density (FIG. 13), mouse brain tissues at postnatal day 21 were acquired and synaptic spines of basal dendrites were counted in GFP (green)-positive mutant cells (shScramble or sheIF4E expressed).
In addition, for cortical dysplasia (FIG. 11), mouse brain tissues at postnatal day 7 of Example 2-1 were acquired and distributions of GFP (green)-positive mutant cells (shScramble or sheIF4E expressed) in the cortex were detected (n=5 in each case. Scale bar=100 μm. Mean±SEM).

Molecule	seizure onset ([1]; early treatment P14 to P56, intraperitoneal, 200 m/kg)	seizure frequency and duration ([1]; epilepsy animal models, FIGS. 14 and 15)	seizure frequency ([1]; late treatment P84 to P114, intraperitoneal, 200 m/kg)	number of buried marbles (repetitive behavior) [2]	time spent in center (residence time within the light box) [3]	knockdown of eIF4E by western blot [4]	% sucrose preference [5]	time spent in center (index of anxiety) ([6]; mU6-sheIF4E models compared to mU6-shscramble models)	dyskinesia (behavior test) ([6]; mouse, in vivo)	time spent to interact with the stranger mouse (social ability and depression) [7]	expression of eIF4E sensitive genes ADK, IRSp53, and CREB1 [8]	eIF4E expression in sheIF4E-expressing neurons (immunostaining) [9]	time spent in sniffing zone (social ability) [10]	frequency and time of seizure ([11]; FMCD animal models in which epilepsy was generated)	spontaneous seizures ([11]; FMCD epilepsy mice)	animals with seizure ([11]; mTOR p.L2427P mutation, video recordings until postnatal day 120)	cortical dysplasia ([12]; brain tissue at postnatal day 7)	defective neuronal migration ([12]; mTOR mutant mice)	decreased synaptic spine density ([12]; postnatal day 21)	hypertrophic soma (neuronal cell size) ([12]; postnatal day 21)
CN(C)C(=N)N=C(N)N [metformin]	prevented seizure onset	reduction of seizure frequency and duration	suppressed seizure frequency																	
B1				increased	increased	efficient knockdown	increased	increased	no dyskinesia	increased	significantly reduced	significantly reduced	increased	remarkably decreased	almost completely rescued	five of 20	remarkably reduced	significantly alleviated	rescued	rescued
